Test results taken from publication PMC5664961.
Values belong to the substance of their own block, whether it stands above or below them.

Legend:
[1] = target: KCTD17 BTB + CTD multi-domain construct (residues G20-Q220), tag cleaved (human); test: SEC; KCTD protein alone and mixed with Cul3 NTD at a molar ratio of 1 : 1; UV 280 nm traces; injected at 50 µM; 50 mM HEPES pH 7.5, 150 mM NaCl, 1 mM TCEP
[2] = target: human Cul3 N-terminal domain (NTD, residues M1-L388) with the engineered mutations I342R and L346D (human) (UniProt Q13618); test: as above
Sequence of human Cul3 N-terminal domain (NTD, residues M1-L388) with the engineered mutations I342R and L346D (human) (Q13618 1-388 I342R/L346D): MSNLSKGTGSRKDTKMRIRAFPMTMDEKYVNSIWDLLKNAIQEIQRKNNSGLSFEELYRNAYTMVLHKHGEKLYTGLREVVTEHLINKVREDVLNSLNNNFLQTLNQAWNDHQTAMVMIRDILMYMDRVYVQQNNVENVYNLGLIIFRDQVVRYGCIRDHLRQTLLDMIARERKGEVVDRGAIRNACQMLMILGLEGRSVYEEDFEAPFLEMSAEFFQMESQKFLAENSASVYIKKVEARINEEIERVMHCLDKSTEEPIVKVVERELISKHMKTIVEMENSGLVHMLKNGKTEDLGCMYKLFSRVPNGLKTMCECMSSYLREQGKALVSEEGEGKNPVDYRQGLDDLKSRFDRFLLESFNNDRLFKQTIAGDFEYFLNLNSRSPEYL

[3] = target: human SHKBP1 BTB domain (residues G18-S120) (human) (UniProt Q8TBC3); test: as above
[4] = target: T1, KCTD17 BTB domain (residues G20-K131) as used in ITC (human); test: ITC; KCTD17 in the cell, titrated with Cul3 NTD from the syringe; 15°C; 50 mM HEPES pH 7.5, 150 mM NaCl, 1 mM TCEP, 5% glycerol; single-binding site model
T1 sequence (Q8N5Z5 20-131, looked up): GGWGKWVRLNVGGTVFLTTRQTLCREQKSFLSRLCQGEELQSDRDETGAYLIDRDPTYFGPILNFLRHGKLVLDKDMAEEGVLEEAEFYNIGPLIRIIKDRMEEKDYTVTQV

[5] = target: KCTD17 BTB + CTD multi-domain construct (residues G20-Q220) (human); test: ITC; KCTD17 in the cell, titrated with Cul3 from the syringe; 15°C; 50 mM HEPES pH 7.5, 150 mM NaCl, 1 mM TCEP, 5% glycerol; single-binding site model
[6] = target: T2, KCTD17 BTB domain (residues G20-K131) (human); test: as above
T2 sequence (Q8N5Z5 20-131, looked up): T1 sequence (Q8N5Z5 20-131, looked up)

[7] = target: 6His-KCTD17 BTB domain (residues G20-K131), N-terminal hexahistidine tag kept (human); test: native MS; 6His-KCTD17 at 2 mg/ml exchanged into 50 mM ammonium acetate pH 6.5; electrospray, Agilent 6530 QTOF
[8] = target: 6His-KCTD17 BTB domain (residues G20-K131), N-terminal hexahistidine tag kept (human); test: SEC-MALS; BTB domains alone, injected at 50 µM; Shodex KW-803; 50 mM HEPES pH 7.5, 150 mM NaCl, 1 mM TCEP
[9] = target: 6His-KCTD17 BTB domain (residues G20-K131), N-terminal hexahistidine tag kept (human); test: crystal structure; BTB domains alone, sitting-drop vapour diffusion at 20 and 4°C, data at 100 K
[10] = target: 6His-KCTD17 BTB domain (residues G20-K131), N-terminal hexahistidine tag kept (human); test: SAXS; BTB domains alone, ~750 µM monomer; 50 mM HEPES, 150 mM NaCl, 0.5 mM TCEP; curves compared with those calculated from the crystal structures
[11] = target: 6His-KCTD17 BTB domain (residues G20-K131), N-terminal hexahistidine tag kept (human); test: crystal structure; BTB domains alone, sitting-drop vapour diffusion at 20 and 4°C, data at 100 K; remark: listed apart in the source
[12] = target: 6xHis-tagged KCTD17 BTB + CTD multi-domain construct (residues G20-Q220), tag kept (human); test: SEC; KCTD17 constructs alone, 6xHis-tagged or tag-cleaved; UV 280 nm traces; various running buffers (pH, salt)

stoichiometry N [1]: 5
stoichiometry N (KCTD : Cul3 (5 : 5)) [2]: 1
Substance: KCTD17 BTB + CTD multi-domain construct (residues G20-Q220), tag cleaved (domain or fragment)

stoichiometry N [3]: 5
Substance: human SHKBP1 BTB domain (residues G18-S120) (from UniProt Q8TBC3 18-120) (domain or fragment)

Kd [4]: 7 nM
Ka [5]: 8.66e+07 M⁻¹
Kd [5]: 12 nM
stoichiometry N [5]: 2.3
Ka [6]: 1.41e+08 M⁻¹
Substance: human Cul3 N-terminal domain (NTD, residues M1-L388) with the engineered mutations I342R and L346D (from UniProt Q13618 1-388) (domain or fragment)

stoichiometry N [8]: 60
stoichiometry N [9]: 5
stoichiometry N [10]: 60
stoichiometry N [11]: 60
Substance: 6His-KCTD17 BTB domain (residues G20-K131), N-terminal hexahistidine tag kept (domain or fragment)
stoichiometry N [7]: 60

stoichiometry N [12]: 60
Substance: 6xHis-tagged KCTD17 BTB + CTD multi-domain construct (residues G20-Q220), tag kept (domain or fragment)
